According to US20260242478A1 (published 2026):
Where no end group is shown, it is not given here.

Experiments:
[1] = biological target: T1, Anti-CD28 scFv (VH - linker 1 - VL) (biotinylated (site not given)); assay: phage binding ELISA; biotinylated anti-CD28 scFv on neutravidin plate, bound phage detected with anti-M13-HRP
[2] = biological target: T1, Anti-CD28 scFv (VH - linker 1 - VL); assay: phage binding ELISA on anti-CD28 scFv plate; wells pre-incubated with soluble CD28 as competitor;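 also: clonal phage supernatants tested, bound phage read out with an HRP-linked anti-M13 antibody, reference wells received blocking buffer lacking CD28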
Protocol: Clonal phage were harvested as crude supernatants and screened via standard enzyme linked immunosorbent assays (ELISAs). […] Prior to the addition of clonal phage, wells were incubated with blocking buffer and CD28 soluble protein or blocking buffer alone. Without washing or aspirating, clonal phage supernatants were then added to the wells and incubated for a short time. Wells were then washed followed by detection of bound phage using a horse radish peroxidase conjugated anti-M13 antibody.

[3] = biological target: T2, Anti-CD28 scFv (VH - linker 1 - VL) (biotinylated (site not stated)); assay: phage ELISA; biotinylated anti-CD28 scFv on neutravidin plate, clonal phage supernatant, anti-M13-HRP detection;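 also: before phage addition, wells were pretreated with soluble CD28 protein in blocking buffer, or with blocking buffer only as the comparison, then phage were added without washing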
T2 construct: Biotinylated and captured on neutravidin-coated plates in the phage panning ELISA
T2 sequence (scFv, as listed by the source): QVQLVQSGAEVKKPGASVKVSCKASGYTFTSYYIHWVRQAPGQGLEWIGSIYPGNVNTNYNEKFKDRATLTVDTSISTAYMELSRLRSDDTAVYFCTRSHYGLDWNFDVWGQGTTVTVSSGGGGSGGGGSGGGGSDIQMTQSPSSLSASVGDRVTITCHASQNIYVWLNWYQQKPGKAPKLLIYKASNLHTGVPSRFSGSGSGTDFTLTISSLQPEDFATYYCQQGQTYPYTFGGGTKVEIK

[4] = biological target: anti-CD28 scFv (VH - linker 1 - VL) (biotinylated (site not stated)); assay: same phage ELISA, wells pre-incubated with soluble CD28 (competitor)
Chain of anti-CD28 scFv (VH - linker 1 - VL) (biotinylated (site not stated)) (scFv, as listed by the source): as above

T1 sequence (scFv, as listed by the source): as above

Binder | CD28 scFv signal [1] | CD28 scFv signal in presence of CD28 [2] | CD28 scFv signal [3] | CD28 scFv signal in presence of CD28 [4]
MDWCPRSHWSECFS (cysteine pairing not given here; also: displayed on phage as fusion to pIII, fusion limits and linker not given here, Clonal phage of the Peptide-9 library, tested as crude phage supernatant; not shown: pIII of the bacteriophage) [Phage-277] | 0.253 | 0.087 | – | –
MDWCPSNMWNECFF (tested as crude clonal phage supernatant) [Phage-416 clonal phage peptide MDWCPSNMWNECFF] | – | – | 0.983 | –
MNWCPKDIWYLCFN (peptide, not shown: large carriers, Clonal phage supernatant) [Phage-22] | – | – | – | 0.168
MDWCPRYLWHVCFA (peptide, not shown: large carriers, cysteine pairing not given here; also: fused to phage pIII, linker not given here, Clonal phage supernatant) [Phage-36] | – | – | – | 0.226
MDWCPRNLWHACFN (cysteine pairing not given here; also: fused to phage pIII, linker and fusion site not given here, Clonal phage of the Peptide-9 library, tested as crude phage supernatant; not shown: pIII of the bacteriophage) [Phage-259] | 1.57 | 0.112 | – | –
MDWCPRDHWVDCYS (cysteine pairing not given here; also: displayed on phage as fusion to pIII, fusion limits and linker not given here, Clonal phage of the Peptide-9 library, tested as crude phage supernatant; not shown: pIII of the bacteriophage) [Phage-275] | 0.671 | 0.092 | – | –
MDWCPRHLWHVCFN (cysteine pairing not given here; also: displayed on phage pIII, linker not given here, Clonal phage of the Peptide-9 library, tested as crude phage supernatant; not shown: pIII of the bacteriophage) [Phage-264] | 2.67 | 0.636 | – | –
MDWCPRHLWSVCFN (cysteine pairing not given here; also: fused to phage pIII, linker and fusion site not given here, Clonal phage of the Peptide-9 library, tested as crude phage supernatant; not shown: pIII of the bacteriophage) [Phage-255] | 2.65 | 0.825 | – | –
VTSCPTTMWNRCFS (cysteine pairing not given here; also: displayed on bacteriophage as fusion to pIII, fusion limits and linker not given here, Clonal phage of the Peptide-9 library, tested as crude phage supernatant; not shown: pIII of the bacteriophage) [Phage-266] | 1.22 | 0.546 | – | –
VDWCPAHMWNECYN (tested as crude clonal phage supernatant) [Phage-419 clonal phage peptide VDWCPAHMWNECYN] | – | – | 0.664 | –
MDWCPRHMWHECFA (cysteine pairing not given here; also: displayed on phage pIII, linker not given here, Clonal phage of the Peptide-9 library, tested as crude phage supernatant; not shown: pIII of the bacteriophage) [Phage-263] | 2.52 | 0.298 | – | –
MDWCPRHMWINCFA (cysteine pairing not given here; also: fused to phage pIII, linker and fusion site not given here, Clonal phage of the Peptide-9 library, tested as crude phage supernatant; not shown: pIII of the bacteriophage) [Phage-252] | 0.92 | 0.165 | – | –
MDWCPRSLWHECFA (peptide, not shown: large carriers, cysteine pairing not given here; also: fused to phage pIII, linker not given here, Clonal phage supernatant) [Phage-35] | – | – | – | 0.255
MVWCMSVGWAVCLN (cysteine pairing not given here; also: displayed on phage as fusion to pIII, fusion limits and linker not given here, Clonal phage of the Peptide-9 library, tested as crude phage supernatant; not shown: pIII of the bacteriophage) [Phage-272] | 0.271 | 0.284 | – | –
MVGCATSMWNRCLT (cysteine pairing not given here; also: fused to phage pIII, linker and fusion site not given here, Clonal phage of the Peptide-9 library, tested as crude phage supernatant; not shown: pIII of the bacteriophage) [Phage-253] | 0.77 | 0.746 | – | –
MDWCPRFLWHECFN (cysteine pairing not given here; also: fused to phage pIII, linker and fusion site not given here, Clonal phage of the Peptide-9 library, tested as crude phage supernatant; not shown: pIII of the bacteriophage) [Phage-257] | 2.59 | 0.351 | – | –
DSFCTWSAWQECGR (cysteine pairing not given here; also: phage-displayed pIII fusion, pIII and linker not given here, Clonal phage of the Peptide-9 library, tested as crude phage supernatant; not shown: pIII of the bacteriophage) [Phage-269] | 0.13 | 0.101 | – | –
MDWCPRDMWSVCFS (peptide, not shown: large carriers, cysteine pairing not given here; also: fused to phage pIII, linker not given here, Clonal phage supernatant; the listing entry decides) [Phage-32] | – | – | – | 0.207
MDWCPMFMWHECFN (cysteine pairing not given here; also: displayed on phage as pIII fusion, fusion limits and linker not given here, Clonal phage of the Peptide-9 library, tested as crude phage supernatant; not shown: pIII of the bacteriophage) [Phage-261] | 2.23 | 1.04 | – | –
MDWCPLHMWHECFS (peptide, not shown: large carriers, Clonal phage supernatant) [Phage-23] | – | – | – | 0.151
WVSCLRHHWLECFH (cysteine pairing not given here; also: displayed on phage as fusion to pIII, fusion limits and linker not given here, Clonal phage of the Peptide-9 library, tested as crude phage supernatant; not shown: pIII of the bacteriophage) [Phage-274] | 0.723 | 0.858 | – | –
MDWCPRFMWSECFS (cysteine pairing not given here; also: fused to phage pIII, linker and fusion site not given here, Clonal phage of the Peptide-9 library, tested as crude phage supernatant; not shown: pIII of the bacteriophage) [Phage-251] | 1.01 | 0.137 | – | –
IDWCPKIHWDLCYF (cysteine pairing not given here; also: displayed on phage as fusion to pIII, fusion limits and linker not given here, Clonal phage of the Peptide-9 library, tested as crude phage supernatant; not shown: pIII of the bacteriophage) [Phage-276] | 0.295 | 0.082 | – | –
MTLCLSVDLVHCWY (cysteine pairing not given here; also: displayed on bacteriophage as fusion to pIII, fusion limits and linker not given here, Clonal phage of the Peptide-9 library, tested as crude phage supernatant; not shown: pIII of the bacteriophage) [Phage-267] | 0.632 | 0.093 | – | –
MDWCPRYLWAECFN (cysteine pairing not given here; also: displayed on phage as fusion to pIII, fusion limits and linker not given here, Clonal phage of the Peptide-9 library, tested as crude phage supernatant; not shown: pIII of the bacteriophage) [Phage-279] | 2.74 | 1.14 | – | –
MDWCPFDLWHVCYN (cysteine pairing not given here; also: fused to phage pIII, linker and fusion site not given here, Clonal phage of the Peptide-9 library, tested as crude phage supernatant; not shown: pIII of the bacteriophage) [Phage-256] | 2.6 | 0.651 | – | –
MDWCPRDFWAFCFF (cysteine pairing not given here; also: displayed on phage as fusion to pIII, fusion limits and linker not given here, Clonal phage of the Peptide-9 library, tested as crude phage supernatant; not shown: pIII of the bacteriophage) [Phage-270] | 2.37 | 0.655 | – | –
MYWCATSMWNRCFV (cysteine pairing not given here; also: displayed on phage pIII, linker not given here, Clonal phage of the Peptide-9 library, tested as crude phage supernatant; not shown: pIII of the bacteriophage) [Phage-262] | 0.398 | 0.415 | – | –
MDWCPRYLWSECFA (cysteine pairing not given here; also: fused to phage pIII, linker and fusion site not given here, Clonal phage of the Peptide-9 library, tested as crude phage supernatant; not shown: pIII of the bacteriophage) [Phage-254] | 2.71 | 0.513 | – | –
